Data reported in IntAct's records for PubMed 17909018.

B1: Cyclin-dependent kinase inhibitor 2A (Homo sapiens), P42771 (parent)
chain: MEPAAGSSMEPSADWLATAAARGRVEEVRALLEAGALPNAPNSYGRRPIQVMMMGSARVAELLLLHGAEPNCADPATLTRPVHDAAREGFLDTLVVLHRAGARLDVRDAWGRLPVDLAEELGHRDVARYLRAAAGGTRGSNHARIDAAEGPSDIPD

What was measured:
cdk4_human CDK4, P11802 [1] = variants of: B1; conditions: with cdk4_human CDK4, P11802
cdk4_human CDK4, P11802 [2] = variants of: B1; conditions: with cdk4_human CDK4, P11802; remark: listed apart in the source
cdk6_human CDK6, Q00534 = variants of: B1; conditions: with cdk6_human CDK6, Q00534
Chain of cdk6_human CDK6, Q00534 (Q00534 whole entry): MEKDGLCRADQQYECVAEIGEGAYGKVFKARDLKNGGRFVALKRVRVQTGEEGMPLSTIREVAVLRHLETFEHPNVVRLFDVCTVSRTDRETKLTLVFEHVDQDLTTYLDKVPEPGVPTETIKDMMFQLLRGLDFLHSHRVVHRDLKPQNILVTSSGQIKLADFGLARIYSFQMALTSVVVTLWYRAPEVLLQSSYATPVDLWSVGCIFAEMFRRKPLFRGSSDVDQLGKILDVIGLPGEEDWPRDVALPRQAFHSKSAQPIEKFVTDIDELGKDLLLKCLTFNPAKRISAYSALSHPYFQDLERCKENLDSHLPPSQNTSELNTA

Chain of cdk4_human CDK4, P11802 (P11802 whole entry): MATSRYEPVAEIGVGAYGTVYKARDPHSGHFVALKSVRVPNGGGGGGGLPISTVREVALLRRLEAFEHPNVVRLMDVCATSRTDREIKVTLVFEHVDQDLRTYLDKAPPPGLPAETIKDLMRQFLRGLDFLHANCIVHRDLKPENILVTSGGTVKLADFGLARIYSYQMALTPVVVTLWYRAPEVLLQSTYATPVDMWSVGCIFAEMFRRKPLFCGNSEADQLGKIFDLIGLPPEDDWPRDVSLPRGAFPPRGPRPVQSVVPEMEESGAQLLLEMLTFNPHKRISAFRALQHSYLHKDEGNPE

Variant	effect of a mutation on the interaction (cdk4_human CDK4, P11802 [1])	effect of a mutation on the interaction (cdk4_human CDK4, P11802 [2])	effect of a mutation on the interaction (cdk6_human CDK6, Q00534)
A20P	disrupting interaction	disrupting interaction strength	disrupting interaction
R24P	disrupting interaction		
